# US20150258217A1, “Methods of Synthesizing and Using Peg-Like Fluorochromes” (THE GENERAL HOSPITAL CORPORATION, priority 2012, published 2015)
# How the values were obtained:
# [1] = Probe volume determination by FPLC (Superdex 75, globular protein standards); type: physicochemical
# Experimental: Size (volume) was determined by FPLC using an ÄKTA Purifier 10 and Superdex™ 75 10/300 GL column (GE Healthcare Lifesciences) with a running buffer of 0.05 M sodium phosphate, 0.15 M NaCl (0.1% Tween, pH 7.2) and flow rate of 0.5 ml/min. The protein standards (Gel Filtration Calibration Kit LMW, code no. 28-4038-41, GE Healthcare) (0.3 mg/ml, mixture of Aprotinin, Ribonuclease A, Ovalbumin, and Conalbumin) and Blue Dextran 2000 were used. To obtain volumes, Mr (apparent molecular weight based on size exclusion retention) was plotted versus Kav. Kav=(Ve−Vo)/[…], Vt=total volume, Ve=elution volume, Vo=void volume.
# [2] = Quantum yield determination; type: physicochemical
# Experimental: Quantum yields were determined as described in Demas et al., “Measurement of photoluminescence quantum yields. Review”, Journal of Physical Chemistry 75, 991-1024 (1971), and Shao et al., “Facile Synthesis of Monofunctional Pentamethine Carbocyanine Fluorophores. Dyes and pigments: an international journal 90, 119-122 (2011). For IR-783 a reference quantum yield of 0.043 was used (see Li et al., “Synthesis and characterization of glucosamine-bound near-infrared probes for optical imaging”, Organic letters 8, 3623-3626, 2006); for fluorescein a reference quantum yield was […] (see Sjoback et al., “Absorption and florescence properties of fluorescein”, Spectrohimica Acta Part A 51, L7-L21, 1995). For Cy3 a reference quantum yield of 0.31 was used (Luminprobe Inc). For PN(783)'s, excitation was at 730 nm and emission spectra were recorded from 765 nm to 870 nm in PBS and maximum emission used. For PN(545)'s, excitation was at 515 nm and emission spectra were recorded from 538 nm to 700 nm in PBS and maximum emission used. For PN(497)'s, excitation was at 450 nm and emission spectra were recorded from 475 nm to 620 nm in PBS and maximum emission used. Absorbance of each probe was adjusted less than 0.1. Measurements were made in triplicate and are expressed as mean±SD.
# [3] = tested on: GFP expressing BT-20 breast carcinoma xenograft; test: Tumor surface fluorescence after peritumoral (DMR) or IV injection; type: in vivo, mouse; conditions: BT-20 tumors, 24 hours post injection
# Experimental: Day 1, BT-20 cells were planted into 24-well plate at 750,000 cells/well in culture medium (EMEM with 10% FBS). Day 2, the old culture medium was replaced with new culture medium containing lenti-virus (1×10^8 particles/mL) and protamine sulphate (American Pharmaceutical Partners, Los Angelus, Calif.; 10 mg/mL; 1:500 of total volume of medium). Day 3, after 16 hours of transfection, medium was changed to the culture medium (EMEM with 10% FBS). 8 hours later, green cells could be seen via fluorescence microscope.
# All animal experiments were approved by the Institutional Review Committee of Massachusetts General Hospital. Female nude mice (25-30 g; 6-8 weeks old; nu/nu; Cox 7, Massachusetts General Hospital, Boston, Mass.) were anesthetized with isoflurane/O2. Tumor cell implantation was performed both sides around the shoulder. 200 μl of cell suspension containing 10^6 cells in Matrigel (BD) was injected subcutaneously. Tumor cells were inoculated for 7 to 10 days.
# The diffusion and molecular retention required of the DMR technique with a tumor bearing model were investigated. We peritumorally injected the RGD probe into an animal bearing two GFP expressing BT-20 breast carcinomas and monitored tumor GFP fluorescence and probe fluorescence as a function of time after injection. The non-integrin binding RAD probe was injected into a second animal also bearing two tumors. Overlaying purple probe fluorescence over green GFP yields white. […] Tumor surface fluorescence from both probes was quantified by the use of solution standards.
# In FIG. 8a), two animals bearing two tumors were PT injected with the RGD probe or RAD probe as indicated and surface fluorescence images were obtained. […] In FIG. 8b), quantitation of tumor surface fluorescence after injections of the RGD or RAD probes as above. Surface fluorescence was quantified through the use of standard solutions.
# To compare the DMR and intravenous (IV) methods, surface fluorescence images of tumor GFP and RGD probe fluorescence were obtained with skin removed, and overlays from the two signals obtained. With both DMR and IV administration, probe fluorescence extended beyond tumor GFP margins to a stromal area beyond the tumor. However, tumor fluorescence was far higher with DMR than IV injection, even though dose was far lower (50 pmoles/mouse by DMR versus 2000 pmoles/mouse by IV).
# In FIG. 9a), skin covering GFP-BT-20 tumor was removed. Shown are visible GFP fluorescence, probe (CyAL5.5) fluorescence, and the overlay of GFP and probe fluorescence plus an X-ray image. Green GFP plus purple CyAL5.5 fluorescence yielded a white overlaid image. In FIG. 9b), with DMR or IV, probe fluorescence included a stromal zone of integrin binding surrounding the tumor was seen. […]
# [4] = Diffusion and elimination after intramuscular administration (surface fluorescence); type: in vivo; conditions: nude mouse, front extremity, 24 hours post injection
# Experimental: The diffusion and elimination of the non-integrin binding RAD probe after an intramuscular administration in the front extremity of a nude mouse was visualized. Using surface fluorescence, the probe rapidly diffused through the extremity and shoulder of the mouse, with vascular uptake and renal elimination evident from bladder fluorescence at 4 hours post injection.
# [5] = literature/vendor reference value; cited from earlier work
# [6] = PN and peptide size (volume, diameter) by FPLC gel filtration (Superdex 200, globular protein standards); type: physicochemical; conditions: Table 5; globular protein equivalent molecular weight
# Experimental: DOTA-Lys-Cys(IR783)-NH2 is then dissolved in DMSO, with 2 equivalents of an NHS ester of PEG and 6 equivalents of DIPEA. The reaction was at room temperature for 5 days. Product was purified by reverse phase HPLC separation. Product molecular weight was by matrix-assisted laser desorption ionization time-of-flight mass spectrometry (MALDI-TOF MS), with product molecular volume by size exclusion FPLC using globular protein standards (GE Healthcare life science AKTApurifier 10).
# The mass spec of low molecular weights (MW) were obtained by MS-ESI Micromass (Waters) and high MW molecules were determined through MALDI-TOF analyses at the Tufts University Core Facility. RP-HPLC (Varian ProStar detector and delivery modules) employed an eluant A (0.1% TFA/water) and eluant B (0.1% TFA and 9.9% water in acetonitrile). Probe size (volume) was determined by FPLC using an ÄKTA Purifier 10 and Superdex™ 200 10/300GL column (GE Healthcare) with a running buffer of 0.05 M sodium phosphate, 0.15 M NaCl (0.1% Tween, pH 7.2) and flow rate of 0.8 ml/min. Standards (GE Healthcare) were Ferritin, Ribonuclease A, Carbonic Anhydrase, and Conalbumin and Blue Dextran 2000. To obtain probe volumes, Mr (apparent molecular weight based on size exclusion retention) was plotted versus Kav. Kav=(Ve−Vo)/(Vt−Vo), Vt=total volume, Ve=elution volume, Vo=void volume.
# The column was calibrated with globular protein standards, and globular protein equivalent molecular weights (in kDa) were obtained (Table 5, column 5). These were converted to PN diameters in nm using the relationship: Radius in nm=[…] where M is the molecular weight of a globular protein expressed in daltons (see Erickson, “Size and Shape of Protein Molecules at the Nanometer Level Determined by Sedimentation, Gel Filtration, and Electron Microscopy”, Biological Procedures Online 2009, 11(1): 32-50). PN's diameters ranged from 3.0 to 11.8 nm (see FIG. 23a). Using PEG's of 5 kDa and 30 kDa, selected for their low polydispersity, PN's were synthesized using IR-783, Cy3 and Fluorescein (see FIG. 22a) and their sizes determined (see FIGS. 23a, 23b, 23c). With the 5 kDa PEG and these three fluorochromes (see the magenta chromatograms in FIGS. 22a, 23b and 23c) PN diameters were 4.3 nm. With the 30 kDa PEG and these three fluorochromes (blue chromatograms, 23a, 23b, 23c), PN diameters were now 10.0 nm. For reference, the diameter of a 67 kDa albumin determined by this method was 5.4 nm.
# [7] = tested on: HT-29, a human colon carcinoma cell line; test: PN and peptide binding to cells (non-specific binding, FACS); type: cell-based; conditions: HT-29 cells, 30 min at 37° C., FACS
# Experimental: HT-29, a human colon carcinoma cell line, was from the American Tissue Culture Collection and maintained according to their instructions. Cells were seeded on 24-well plates at 5×10^5 cells/well in culture medium (RPMI 1640 with 10% FBS) the day before the assay. The day of assay, medium was removed, wells rinsed twice with DPBS (+Ca, +Mg), and 100 μl of 2% FBS/DPBS (+Ca, +Mg) added. 100 μL of Nanoprobes (2 μM) in DPBS (+Ca, +Mg) was added to cells and incubated for 30 min at 37° C. (Probe concentrations were determined spectrophotometrically (783 nm, extinction coefficient of 314 471 cm^−1 M^−1 for IR-783; 497 nm, extinction coefficient of 68 000 cm^−1 M^−1 for Fluorescein; 545 nm, extinction coefficient of 150 000 cm^−1 M^−1 for Cy3). Cells were detached by Trypsin/EDTA and assayed for fluorescence by FACS (BD 7 laser LSR2 for nanoprobes with IR-783; BD 3 laser LSR2 for nanoprobes with Fluorescein or Cy3).
# [8] = tested on: mCherry/HT29 tumor sections; test: Confocal microscopy of tumor sections (tumor retention phase); type: in vivo, mouse; conditions: 48 hours post IV injection
# Experimental: The mCherry-HT-29 tumor sample was collected at 48 hours post IV injection with PN(497)10.0, and then cryosectioned with thickness of 5 μm. The tumor section was fixed with 4% PFA, mounted with 90% glycerol/10% PBS (at pH 8.5 for best fluorescein fluorescence), and stained with DAPI. Confocal imaging was performed on a Zeiss LSM510 laser scanning confocal microscope (Zeiss Axiophot, Carl Zeiss, Jena, Germany). A 405 nm diode Laser, 488 nm argon laser, and 561 nm diode laser were used for the excitation of DAPI, fluorescein, and mCherry, respectively. A primary dichroic HFT 405/488/561 was used in combination with an LP420 emission filter for DAPI, BP505-530 for fluorescein, and LP575 for mCherry. Images were analyzed with ImageJ64.
substance,measurement,setting,value
DOTA-Lys(CyAL5.5)-Lys(5 kDa PEG)- βAla -Lys(sPEG-RAD) [Compound 7b],Equiv. Vol.,"[1]; FPLC, globular protein equivalent volume",25 kDa
same,Molecular Volume,"[1]; Table 3A, tetrapeptides",20 kDa
same,Molecular Volume,"[1]; Table 4, DMR probes",20-30 kDa
same,Quantum Yield,"[2]; Table 3A, CyAL5.5 tetrapeptides",0.20
same,Quantum Yield,"[2]; Table 4, DMR probes",0.20
same,tumor retention of probe fluorescence after peritumoral injection,[3],cleared by 24 hours post injection
same,clearance from intramuscular injection site,[4],detectable fluorescence was not found
Cy3,reference quantum yield,[5],0.31
(DOTA)Lys(PEG30K)-Cys(Cy3) [PN(545)10.0],Quant. Yield,"[2]; Table 5, in PBS",0.61
same,Volume FPLC,[6],435 kDa
same,Cell NSB (percent of cells with fluorescence higher than unstained cell),[7],15%
same,cellular localisation in tumor sections,[8],seen in mCherry/HT29 cells
